For series [1], the system named is cultured fibroblast NIH3T3 cells. The series is described as follows: Real-time monitoring of luminescence under control of the Bmal1 promoter in living cells. The series is classed as cell-based. To be noted: PEST-fused luciferase, NIH3T3, 200 μM D-luciferin. The method, then: Short lifespan-type luciferase was made by ligating a PEST sequence (SEQ ID NO: 7) of murine ornithine decarboxylase to a wild-type (SEQ ID NO: 1) and improved-type (SEQ ID NO: 2) click beetle luciferase cDNA. Vectors in which these had been inserted downstream of a murine circadian clock gene Bmal1 promoter (GenBank Accession No. AB064982) were made. Subsequently, 1 μg of each vector was introduced into cultured fibroblast NIH3T3 cells seeded in a 35 mm culture dish by a lipofection method (LipofectAMINE PLUS, Invitrogen), and the cells were cultured at 37° C. for 24 hours and treated with a DMEM medium containing 100 nM dexamethasone for 2 hours. The medium was replaced with a DMEM medium containing 200 μM D-luciferin and 10% (w/v) bovine serum, and then one minute of luminescence was measured every 15 minutes for 5 days in real time using a real-time gene expression measurement apparatus (AB2500 supplied from ATTO Corporation) (FIG. 1A).

The test system is the same in series [2]. The series is described as follows: Transient assay of Bmal1 promoter activity, luminescence of cell extract. To be noted: PEST-fused luciferase, NIH3T3, cell lysate, luminometer. The series is classed as cell-based. On the procedure:
The aforementioned reporter vector (200 ng) was introduced into the cultured fibroblast NIH3T3 cells seeded in a 24-well plate by the lipofection method, the cells were cultured at 37° C. for 24 hours, and disrupted with 300 μL of a cell lysis agent (cultured cell lysis agent for PicaGene Dual Seapansy supplied from Toyo Ink MFG Co., Ltd.). A luminescent substrate solution (50 μL) (PicaGene luminescence reagent II) was added to a cell extract solution (50 μL), and 20 seconds of luminescence was measured using a luminometer (AB2250 supplied from ATTO Corporation) (FIG. 1B).

Series [3] deals with cultured fibroblast rat1 cells. The series is described as follows: Real-time monitoring of luminescence under control of the Bmal1 promoter in living cells. Type of series: cell-based. To be noted: PEST-fused luciferase, luminescence amount integrated within 24 hours. The method, then: Short lifespan-type luciferase was made by ligating the PEST sequence (SEQ ID NO: 7) of murine ornithine decarboxylase to firefly luciferase cDNA (Luc(+), supplied from Promega) derived from Photinus pyralis produced in North America and improved-type click beetle luciferase cDNA (SEQ ID NO: 2). Vectors in which these had been inserted downstream of a murine circadian clock gene Bmal1 promoter (GenBank Accession No. AB064982) were made. Subsequently, 1 μg of each vector was introduced into cultured fibroblast rat1 cells seeded in a 35 mm culture dish by the lipofection method (LipofectAMINE PLUS), and the cells were cultured at 37° C. for 24 hours and treated with the DMEM medium containing 100 nM dexamethasone for 2 hours. The medium was replaced with a DMEM medium containing 200 μM D-luciferin and 10% (w/v) bovine serum, and then one minute of luminescence was measured every 15 minutes for 5 days using the real-time gene expression measurement apparatus (AB2500 supplied from ATTO Corporation) (FIG. 2).

The test system of series [4] is cultured fibroblast NIH3T3 cells. Kind of series: Bioluminescence imaging of cells expressing FLAG-tagged luciferase. To be noted: CMV promoter, FLAG tag, NIH3T3, 200 μM D-luciferin, CCD camera, three minutes. The series is classed as cell-based. On the procedure: A FLAG tag sequence (MDYDDDDK; SEQ ID NO: 15) was ligated to the N terminus of the firefly luciferase cDNA (Luc(+), supplied from Promega) derived from Photinus pyralis produced in North America and the improved-type click beetle luciferase cDNA (SEQ ID NO: 2). The expression vector (2 μg) obtained by inserting one of them downstream of the CMV promoter was introduced in the cultured fibroblast NIH3T3 cells by the lipofection method, and the cells were cultured at 37° C. for 24 hours. Subsequently, the medium was replaced with a DMEM medium containing 200 μM D-luciferin and 10% (w/v) bovine serum, and three minutes of bioluminescence was measured using a CCD camera (Cellgraph supplied from ATTO Corporation) cooled to −60° C.

Series [5] has as its system HeLa S3 cells. The series is described as follows: Analysis of AP1 response sequence in living cells, 96-well plate. To be noted: HeLa S3, TPA or EGF stimulation, 0.2 mM D-luciferin. Type of series: cell-based. On the procedure:
HeLa S3 cells were seeded at 3×10^4 cells (100 μL) per well in a 96-well white opaque plate, and cultured in Dulbecco's Modified Eagle's Medium DMEM (Nissui Pharmaceutical Co., Ltd.) containing 10% FCS. The following day, 0.2 μg per well of the plasmid pELuc-AP1 or pGL3-AP1 (diluted with 25 μL of DMEM containing no FCS) and 0.5 μL of Lipofectamine 2000 transfection reagent (Invitrogen, diluted with 25 μL of DMEM)) were mixed and added to the cells in the medium replaced with 100 μL of DMEM+0.1% FCS, which was incubated for 24 hours to introduce the gene. The following day, the medium was either not replaced, or replaced with DMEM+0.1% FCS (further containing 0.2 mM D-luciferin) containing 0.01 μM TPA (Sigma), 0.1 μM TPA, 1 μM TPA or 10 ng/mL of EGF, and the cells were incubated for 5 hours. Subsequently, the luminescence was measured using a plate reader 1420 ARVOMX (Perkin Elmer). In the graph for measurement values, readout values were plotted, and in the graph for induction ratios, an expression induction ratio at each concentration calculated when the value in an additive-free condition equaled 1 was plotted.

The nature of series [6]: pH dependency of luminescence of recombinant luciferase enzyme preparations. Type of series: biochemical. To be noted: pH 6.6 to 8.8, relative activity with pH 8.0 set as 100. The method, then: A click beetle-derived luciferase enzyme preparation was acquired as a recombinant body by inserting the luciferase gene PtGRm in the vector pELuc-test (Toyobo Co., Ltd.) into the expression vector for Escherichia coli and expressing it in Escherichia coli. As a firefly luciferase enzyme preparation, QuantiLum Recombinant Luciferase (Promega, described as fLuc in the figure) was used. For each enzyme preparation, a luminescence reagent containing 15 mM MgSO4, 6 mM EDTA, 4 mM Co-enzyme A, 1.2 mM D-luciferin, 6 mM DTT, 0.2% Nonidet P40, 2 mM ATP and 2 μg/mL of the enzyme preparation was prepared. Then, 100 μL of ATP solution at […], 0.2 mM or 1 mM and 100 μL of 100 mM Hepes-NaOH pH 6.6 to 8.8 were mixed, and the luminescence was measured.
A graph of luminescence measurement values and a graph obtained by plotting the relative activity at each pH when the measurement value at pH 8.0 was set as 100 in each luciferase are shown in FIG. 12.

B1: improved-type click beetle luciferase: Pyrearinus termitilluminans click beetle luciferase expressed from the modified gene of SEQ ID NO: 2 (protein)
chain: MEREKNVVYGPEPKHPLGNFTAGEMLYNALHKHSHIPQAILDVMGNESLSYQEFFDTTVKLGQSLQNCGYKMNDVVSICAENNKRFFIPIISAWYIGMVVAPVNEDYIPDELCKVTGISKPILVFTTRKILPKVLEVKDRTNYIKRIIILDSEENLLGCESLHNFMSRYSDNNLQTFKPLHYDPVDQVAAILCSSGTTGLPKGVMQTHRNICVRLTHASDPRVGTQLIPGVSVLAYLPFFHAFGFSINLGYFMVGLRVVMLRRFNQEVFLKAIQDYEVRSVINVPSTILFLSKSPLVDKYDLSTLAELCCGAAPLAKEVAEIAVKRLNLPGIRCGYGLTESTSANIHTLHNEFKSGSLGKVTPYMAAKIIDRNTGEALGPNQVGELCIWGPMVTKGYVNNPQATKEAIDDDGWLHSGDFGYYDEDEYFYIVDRYKELIKYKGYQVAPVELEEILLQHPGIRDVAVVGIPDIEAGELPAGFVVKQPGAQLTAKEVYDFLAQRVSHSKYLRGGVRFVDSIPRNVTGKISRKELREALMEKASKL
modifications: Pyrearinus termitilluminans
Turning to B1, the “luminescence intensity relative to wild-type luciferase” value is reported as “about 100 times” in series [1] and “about 150 times” in series [2]. Moreover, the “luminescence intensity relative to firefly luciferase derived from Photinus pyralis” value in series [3] is on record as no less than 15 times. Besides, in series [4], the “bioluminescence signal of cells compared with firefly luciferase” value is reported as “clearly emit strong signals”. Also, the “luminescence intensity relative to conventional luciferase” value in series [5] turned out to be 15 times. For the same molecule, the “variation of luminescence activity due to pH compared with firefly luciferase” value in series [6] is on record as “variation due to the pH values is smaller”.
